Test results as given in IntAct's records for PubMed 10409688.

B1: Eukaryotic initiation factor 4F subunit p150 (Saccharomyces cerevisiae), P39935 (parent)
chain: MTDETAHPTQSASKQESAALKQTGDDQQESQQQRGYTNYNNGSNYTQKKPYNSNRPHQQRGGKFGPNRYNNRGNYNGGGSFRGGHMGANSSNVPWTGYYNNYPVYYQPQQMAAAGSAPANPIPVEEKSPVPTKIEITTKSGEHLDLKEQHKAKLQSQERSTVSPQPESKLKETSDSTSTSTPTPTPSTNDSKASSEENISEAEKTRRNFIEQVKLRKAALEKKRKEQLEGSSGNNNIPMKTTPENVEEKGSDKPEVTEKTKPAEEKSAEPEVKQETPAEEGEQGEKGQIKEESTPKVLTFAERLKLKKQQKEREEKTEGKENKEVPVQEETKSAIESAPVPPSEQVKEETEVAETEQSNIDESATTPAIPTKSDEAEAEVEAEAGDAGTKIGLEAEIETTTDETDDGTNTVSHILNVLKDATPIEDVFSFNYPEGIEGPDIKYKKEHVKYTYGPTFLLQFKDKLNVKADAEWVQSTASKIVIPPGMGRGNRSRDSGRFGNNSSRGHDFRNTSVRNMDDRANSRTSSKRRSKRMNDDRRSNRSYTSRRDRERGSYRNEEKREDDKPKEEVAPLVPSANRWVPKFKSKKTEKKLAPDGKTELLDKDEVERKMKSLLNKLTLEMFDAISSEILAIANISVWETNGETLKAVIEQIFLKACDEPHWSSMYAQLCGKVVKELNPDITDETNEGKTGPKLVLHYLVARCHAEFDKGWTDKLPTNEDGTPLEPEMMSEEYYAAASAKRRGLGLVRFIGFLYRLNLLTGKMMFECFRRLMKDLTDSPSEETLESVVELLNTVGEQFETDSFRTGQATLEGSQLLDSLFGILDNIIQTAKISSRIKFKLIDIKELRHDKNWNSDKKDNGPKTIQQIHEEEERQRQLKNNSRSNSRRTNNSSNRHSFRRDAPPASKDSFITTRTYSQRNSQRAPPPKEEPAAPTSTATNMFSALMGESDDEE
partner: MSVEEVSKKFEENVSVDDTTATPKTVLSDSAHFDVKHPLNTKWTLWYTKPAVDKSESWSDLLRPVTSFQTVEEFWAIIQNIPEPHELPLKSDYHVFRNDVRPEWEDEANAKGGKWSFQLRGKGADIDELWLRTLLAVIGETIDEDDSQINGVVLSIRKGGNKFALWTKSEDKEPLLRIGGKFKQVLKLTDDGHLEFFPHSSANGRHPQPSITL

Variants of: B1
Conditions: with if4e_yeast CDC33, P07260

Row | Variant | effect of a mutation on the interaction
1 | K444A | decreasing interaction
2 | E425D | decreasing interaction
3 | L457A;L458A | decreasing interaction
